Assay [1] addresses ELK (3% skim milk powder solution). Put plainly: ELISA, control well with ELK only, ~50 ng iMab per well, anti-VSV-HRP; urea purification.
Assay [2] addresses chicken lysozyme (chicken), P00698. Put plainly: ELISA versus lysozyme, iMab dilution 1:1000, before pH shock. Conditions: remark: other sources report otherwise. On the technique in general: ELISA stands for enzyme-linked immunosorbent assay.
Assay [3] shares this target. Put plainly: ELISA versus lysozyme, iMab dilution 1:1000, after precipitation with potassium acetate pH 4.8 and redissolving in PBS pH 7.5. The conditions noted are these: remark: other sources report otherwise.
Assay [4] has as its target ELK (3% skim milk powder solution). Put plainly: ELISA, control well with ELK only, ~50 ng iMab per well, anti-VSV-HRP; purification by heat (60 C).
The target in assay [5] is chicken lysozyme (chicken), P00698. Put plainly: ELISA versus lysozyme, iMab dilution 1:10,000, before pH shock. The conditions noted are these: remark: other sources report otherwise.
Sequence of chicken lysozyme (chicken), P00698 (P00698 19-147 limits assumed): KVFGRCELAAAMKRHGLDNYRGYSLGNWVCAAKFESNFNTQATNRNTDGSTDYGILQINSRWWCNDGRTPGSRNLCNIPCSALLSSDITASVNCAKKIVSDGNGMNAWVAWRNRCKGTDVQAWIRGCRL
For assay [6] the target is unchanged. Put plainly: ELISA versus lysozyme, iMab dilution 1:10, before pH shock. Conditions: remark: other sources report otherwise.
The target is the same in assay [7]. Put plainly: ELISA versus lysozyme, iMab dilution 1:10,000, after precipitation with potassium acetate pH 4.8 and redissolving in PBS pH 7.5. Conditions: remark: other sources report otherwise.
For assay [8] the target is unchanged. The assay can be described thus: ELISA, well coated with lysozyme (100 ug/ml) and blocked with ELK, ~50 ng iMab per well, anti-VSV-HRP; purification by heat (60 C). Conditions: remark: other sources report otherwise.
The target is the same in assay [9]. The assay can be described thus: ELISA versus lysozyme, iMab dilution 1:100, after precipitation with potassium acetate pH 4.8 and redissolving in PBS pH 7.5. Conditions: remark: other sources report otherwise.
Assay [10] has the same target. The assay can be described thus: ELISA versus lysozyme, iMab dilution 1:100, before pH shock. The conditions noted are these: remark: other sources report otherwise.
Assay [11] shares this target. Put plainly: ELISA versus lysozyme, iMab dilution 1:10, after precipitation with potassium acetate pH 4.8 and redissolving in PBS pH 7.5. Conditions: remark: other sources report otherwise.
For assay [12] the target is unchanged. The assay can be described thus: ELISA, well coated with lysozyme (100 ug/ml) and blocked with ELK, ~50 ng iMab per well, anti-VSV-HRP; urea purification. Conditions: remark: other sources report otherwise.
The target of assay [13] is skin proteins. Put plainly: ELISA on coated skin proteins, blocking 0.5% BSA, iMab (OD280 0.585) diluted 200 x, anti-VSV-HRP; background without iMab 0.484.
For assay [14], the target named is hair proteins. Put plainly: ELISA on coated hair proteins, blocking 0.5% BSA, iMab (OD280 3.60) diluted 100 x, anti-VSV-HRP; background without iMab 0.095.
Assay [15] addresses skin proteins. Put plainly: ELISA on coated skin proteins, blocking Seablock, iMab (OD280 0.585) diluted 200 x, anti-VSV-HRP; background without iMab 0.131.
The target of assay [16] is hair proteins. Put plainly: ELISA on coated hair proteins, blocking 0.5% BSA, iMab (OD280 4.22) diluted 100 x, anti-VSV-HRP; background without iMab 0.095.
The target of assay [17] is skin proteins. The assay can be described thus: ELISA on coated skin proteins, blocking 0.5% BSA, iMab (OD280 0.323) diluted 100 x, anti-VSV-HRP; background without iMab 0.484.
The target of assay [18] is skin proteins. The assay can be described thus: ELISA on coated skin proteins, blocking Seablock, iMab (OD280 0.323) diluted 100 x, anti-VSV-HRP; background without iMab 0.131.
The target of assay [19] is skin proteins. The assay can be described thus: ELISA on coated skin proteins, blocking Seablock, iMab (OD280 0.399) diluted 100 x, anti-VSV-HRP; background without iMab 0.084.
Assay [20] deals with skin proteins. The assay can be described thus: ELISA on coated skin proteins, blocking 0.5% BSA, iMab (OD280 0.399) diluted 100 x, anti-VSV-HRP; background without iMab 0.187.
Assay [21] has as its target hair proteins. The assay can be described thus: ELISA on coated hair proteins, blocking 0.5% BSA, iMab (OD280 3.19) diluted 100 x, anti-VSV-HRP; background without iMab 0.095.
Assay [22] deals with skin proteins. Put plainly: ELISA on coated skin proteins, blocking 0.5% BSA, iMab (OD280 0.828) diluted 250 x, anti-VSV-HRP; background without iMab 0.484.
Assay [23] deals with skin proteins. The assay can be described thus: ELISA on coated skin proteins, blocking Seablock, iMab (OD280 0.828) diluted 250 x, anti-VSV-HRP; background without iMab 0.131.
Assay [24] has as its target hair proteins. Put plainly: ELISA on coated hair proteins, blocking 0.5% BSA, iMab (OD280 2.36) diluted 100 x, anti-VSV-HRP; background without iMab 0.095.
For assay [25], the target named is bovine serum albumin (bovine) (UniProt P02769). The assay can be described thus: gel-shift, 2 mg/ml conjugate with 10 mg/ml BSA, 7.5% native PAA gel; Rf of the conjugate alone 0.66.
Sequence of bovine serum albumin (bovine) (P02769 25-607 limits assumed): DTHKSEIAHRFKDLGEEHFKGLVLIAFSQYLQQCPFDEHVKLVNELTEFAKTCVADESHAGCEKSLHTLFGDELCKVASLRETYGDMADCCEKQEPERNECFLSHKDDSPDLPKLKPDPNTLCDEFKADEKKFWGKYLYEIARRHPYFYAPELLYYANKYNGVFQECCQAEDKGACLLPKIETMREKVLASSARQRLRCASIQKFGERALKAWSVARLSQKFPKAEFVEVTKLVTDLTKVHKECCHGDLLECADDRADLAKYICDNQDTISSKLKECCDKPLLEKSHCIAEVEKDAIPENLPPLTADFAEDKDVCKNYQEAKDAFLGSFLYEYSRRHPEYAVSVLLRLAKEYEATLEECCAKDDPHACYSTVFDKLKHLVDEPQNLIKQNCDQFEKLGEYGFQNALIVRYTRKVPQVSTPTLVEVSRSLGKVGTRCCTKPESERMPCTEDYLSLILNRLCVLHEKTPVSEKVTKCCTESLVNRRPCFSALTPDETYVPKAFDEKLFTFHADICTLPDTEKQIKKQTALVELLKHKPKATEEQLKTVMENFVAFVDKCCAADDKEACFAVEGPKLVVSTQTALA
The target in assay [26] is hair proteins. Put plainly: ELISA on coated hair proteins, blocking 0.5% BSA, iMab (OD280 1.71) diluted 100 x, anti-VSV-HRP; background without iMab 0.095.
Assay [27] deals with skin proteins. The assay can be described thus: ELISA on coated skin proteins, blocking Seablock, iMab (OD280 0.357) diluted 100 x, anti-VSV-HRP; background without iMab 0.131.
Assay [28] has as its target skin proteins. The assay can be described thus: ELISA on coated skin proteins, blocking 0.5% BSA, iMab (OD280 0.357) diluted 100 x, anti-VSV-HRP; background without iMab 0.484.
Assay [29] has as its target hair proteins. Put plainly: ELISA on coated hair proteins, blocking 0.5% BSA, iMab (OD280 1.09) diluted 100 x, anti-VSV-HRP; background without iMab 0.095.
Assay [30] deals with skin proteins. Put plainly: ELISA on coated skin proteins, blocking Seablock, iMab (OD280 0.327) diluted 100 x, anti-VSV-HRP; background without iMab 0.131.
Assay [31] concerns the target skin proteins. Put plainly: ELISA on coated skin proteins, blocking 0.5% BSA, iMab (OD280 0.327) diluted 100 x, anti-VSV-HRP; background without iMab 0.484.
For assay [32], the target named is hair proteins. Put plainly: ELISA on coated hair proteins, blocking 0.5% BSA, iMab (OD280 2.82) diluted 100 x, anti-VSV-HRP; background without iMab 0.095.
In assay [33] the target is skin proteins. Put plainly: ELISA on coated skin proteins, blocking Seablock, iMab (OD280 0.711) diluted 200 x, anti-VSV-HRP; background without iMab 0.131.
Assay [34] concerns the target skin proteins. Put plainly: ELISA on coated skin proteins, blocking 0.5% BSA, iMab (OD280 0.711) diluted 200 x, anti-VSV-HRP; background without iMab 0.484.

We go through 14 molecules from US20060140889A1.

B1: iMab111 (designed binder)
chain: NVKLVCKGGNFVENDDDLKLTCRAEGYTIGPYCMGWFRQAPNDDSTNVATINMGGGITYYGDSVKERFDIRRDNASNTVTLSMDDLQPEDSAEYNCAGDSTIYASYYECGHGLSTGGYGYDSHYRCQGTDVTVSS
Turning to B1, the Absorbtion (450 nm) (absorbance at 450 nm) in [1] was found to be 0.043.

B2: iMab116 (designed binder, not shown: small tags and cut ends)
chain: NVKLVEKGGNFVENDDDLKLTCRAEGYTIGPYCMGWFRQAPNDDSTNVATINMGGGITYYGDSVKERFDIRRDNASNTVTLSMDDLQPEDSAEYNGAGDSTIYGSYYECGHGLSTGGYGYDSHYRGQGTDVTVSS
In [1], B2 gave an Absorbtion (450 nm) (absorbance at 450 nm) of 0.042.

B3: iMab100 (designed binder, not shown: small tags and cut ends)
chain: NVKLVEKGGNFVENDDDLKLTCRAEGYTIGPYCMGWFRQAPNDDSTNVATINMGGGITYYGDSVKERFDIRRDNASNTVTLSMDDLQPEDSAEYNCAGDSTIYASYYECGHGLSTGGYGYDSHYRGQGTDVTVSS
With B3, the Signal on Elisa is 0.128 in [2]; 0.169 in [3]; 0.059 in assay [5]; 0.36 in [6]; 0.059 in [7]; 0.263 in assay [9]. Besides, the figures for the Signal on Elisa in [10] and in assay [11] were 0.228 and 0.39, respectively. For the same molecule, the Absorbtion (450 nm) (absorbance at 450 nm) in [4] came to 0.041; in assay [1], 0.04; in assay [8], 0.369; in [12], 0.494.

B4: iMab143-xx-0029 (designed binder)
chain: MIKVYTDRENYGAVGSQVTLHCSASGYTIGPISFTWRYQPEGDRDAISIFHYNMGDGSIVIHNLDYSDNGSFTCAARFVDALYEPKSCTSRNYAYGNSSQVTLYVFE
On to B4, for which the OD450 in Elisa in assay [13] amounted to 1.88 OD450; in assay [14], 0.203 OD450; in [15], 0.212 OD450.

B5: iMab143-xx-0030 (designed binder)
chain: MIKVYTDRENYGAVGSQVTLHCSASGYTIGPISFTWRYQPEGDRDAISIFHYNMGDGSIVIHNLDYSDNGSFTCAAVFAVVTVATKPDPRFYDYGNSSQVTLYVFEA
Consider B5, for which the OD450 in Elisa in assay [16] is 0.262 OD450; in assay [17], 2.02 OD450; in assay [18], 0.56 OD450.

B6: iMab142-xx-0032 (designed binder)
chain: MNVKLVEKGGNFVENDDDLKLTCRAEGYTIGPYSMGWFRQAPNDDSTNVSCINMGGGITYYGDSVKERFDIRRDNASNTVTLSMDDLQPEDSAEYNCAATLAPFSIATMYGGLLDTAFDSRGQGTDVTVSS
As to B6, the OD450 in Elisa in assay [19] is 0.088 OD450; in assay [20], 0.306 OD450.

B7: iMab143-xx-0033 (designed binder)
chain: MIKVYTDRENYGAVGSQVTLHCSASGYTIGPISFTWRYQPEGDRDAISIFHYNMGDGSIVIHNLDYSDNGSFTCAADLHGLGLRRISTYEYGNSSQVTLYVFE
Consider B7, for which the OD450 in Elisa was 0.442 OD450 in [21], 1.66 OD450 in assay [22] and 0.29 OD450 in assay [23].

B8: iMab142-xx-0039 (designed binder)
chain: NVKLVEKGGNFVENDDDLKLTCRAEGYTIGPYSMGWFRQAPNDDSTNVSCINMGGGITYYGDSVKERFDIRRDNASNTVTLSMDDLQPEDSAEYNCAADYGRCSWLIRAYNYRGQGTDVTVSS
In assay [24], B8 yielded an OD450 in Elisa of 1.32 OD450.

B9: TRITC labeled iMab142-xx-0002 (designed binder, not shown: small tags and cut ends)
chain: MNVKLVEKGGNFVENDDDLKLTCRAEGYTIGPYSMGWFRQAPNDDSTNVSCINMGGGITYYGDSVKERFDIRRDNASNTVTLSMDDLQPEDSAVYNCAADWWDGFTYGSTWYNPSSYDYRGQGTDVTVSS
modifications: TRITC covalently on primary amines, meaning the N-terminus and Lys side chains. Positions and number are not stated; labelled Lys is written K.
In the case of B9, the retardation factor (Rf) in assay [25] came to 0.66.

B10: iMab143-xx-0034 (designed binder)
chain: MIKVYTDRENYGAVGSQVTLHCSASGYTIGPISFTWRYQPEGDRDAISIFHYNMGDGSIVIHNLDYSDNGSFTCAAYRIRSGGYYCFLTYLMDYGNSSQVTLYVFE
As to B10, the OD450 in Elisa is 0.736 OD450 in assay [26], 0.699 OD450 in [27] and 2.23 OD450 in [28].

B11: iMab142-xx-0038 (designed binder)
chain: NVKLVEKGGNFVENDDDLKLTCRAEGYTIGPYSMGWFRQAPNDDSTNVSCINMGGGITYYGDSVKERFDIRRDNASNTVTLSMDDLQPEDSAEYNCATTLAPFGIATMYGPLNPAAFESRGQGTDVTVSS
Consider B11, for which the OD450 in Elisa in [29] turned out to be 2.35 OD450.

B12: iMab122 (designed binder, not shown: small tags and cut ends)
chain: NVKLVEKGGNFVENDDDLKLTCRASGRTFSSRTMGWFRQAPNDDSTNVATIRWNGGSTYYTNYGDSVKERFDIRVDQASNTVTLSMDDLQPEDSAEYNCAGTDIGDGWSGRYDYRGQGTDVTVSS
As to B12, the Absorbtion (450 nm) (absorbance at 450 nm) in [1] came to 0.051.

B13: iMab143-xx-0031 (designed binder)
chain: MIKVYTDRENYGAVGSQVTLHCSASGYTIGPISFTWRYQPEGDRDAISIFHYNMGDGSIVIHNLDYSDNGSFTCAATTPFIDYDPNDICPSWYEYDYGNSSQVTLYVFE
B13: the OD450 in Elisa in [30] was 2.88 OD450; in assay [31], 2.62 OD450; in [32], 1.05 OD450.

B14: iMab143-xx-0035 (designed binder)
chain: MIKVYTDRENYGAVGSQVTLHCSASGYTIGPISFTWRYQPEGDRDAISIFHYNMGDGSIVIHNLDYSDNGSFTCAAGADCSDYGIMYGMDYGNSSQVTLYVFE
For B14, the OD450 in Elisa in assay [33] worked out at 1.79 OD450; in assay [34], 0.824 OD450.
